Experimental data: the domain aggregation screens of Martell et al. (2025)

Experiment: soluble fraction after stress (log2 fold change); higher = more stays soluble; pooled small domains, quantitative proteomics
Settings: stress: pH 4
Method in brief: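 After pH 4 stress, pooled custom libraries of small protein domains were quantified with high-throughput quantitative proteomics. Aggregation propensity is taken from the fold change in each domain's soluble amount following the acid stress. The scale is log2, where higher values mean more stayed soluble.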

Row | Sequence | soluble fraction (log2)
1 | HMKSNKEKIYDFIQMHDTAEKEGGVSTTYIAQALSLQRTNVSSLLNALVEEGRIHKSNGRPVLYSIAG | 0.178
2 | HMTKEEIVVNWLPRYTKRNLEDFGEYILLTNFNKYVEIFAEKFNVPILGRDANMISASAEGITIIN | -0.359
3 | HMNVESLVGKQVIVSETIDNLKATGQVKVNGLEWTARAADETDIIPQGTEVTINEVSGVKLIVSR | 0.0287
4 | HMGPLYARVKAIVLARIMGGDWPPGTALPAEMELARALGVSQGTVRKALDALTAEQVVVRRQGSGTYVAE | -0.158
5 | HMKAQVKSVLDDIPGIGQTRRKALMRYFKSLEKIREASVEELKEADAMNERAAQSVYAFFHK | -0.222
6 | HMDRYVDEEKRFYWRSGEAYLNFSKYKDRSLAEVATVDPGFLRWMMEADFSPETKQIVERALEGEFPQKK | -0.244
7 | HMDYENGTVKWFNTKKGYGFITRENGEDLFVHFRNIKGRGRRSLNDGEPVTFVVIEGDKGLQADQVSA | -0.754
8 | HMDAIDQDGNHMTFKRWGEQLQEAFQALEAYDTDKAKTILNELIKFPIDSDLNNALKGILSNIDEMMA | -0.68
9 | HMPQETPIPKSEIQSYDEIWLEPISTDNILRNELRGWYHVKDRWVENEFGNRFYLDTYASKWLAFPS | -0.752
10 | HMSQAVEISSVKTQIDGKSYYLHTIKQGQTLYGISKAYGVSVEELTTVNPETSKGLKVGQIIKVPDTKT | -0.303
11 | HMKRDRLYGITIYLLNHGRTSAKTLAEYFEVSVRTIQRDMDALSMAKIPIIAYPGSDGGYEIQEGYRL | -0.37
12 | HMDSGVPEWLASALRASPVAWKNFLALPPSHQRRYVGWISSARRDETRNRRIAEAISLLVEHKRLG | 0.0211
13 | HMTGLSAQILAKLRDNHGVLPVSDKSDPAVISNLFGVSKGNFKKAIGGLYKEGQIVIHADRIEL | 0.302
14 | HMKSKPRVPFGSLVEMGILKPGSILFDPKGKIKTKVMVDGSIKYKETEGSIHKVAAQIMGTESYNGWTYW | -0.0629
15 | HMENVIYGINGPVVTVRNSRSFSMMEMVFVGNERLVGEVIGITDKITTIQVYEETTGLRPGEPVYGTGSPM | -0.842
16 | HMTNEAFITPSVLEWAIKRAGVSAESIHKKAEQWVSGKARPTFKQAVDIAKTLQIPFGYLWLKEPPKEQ | -0.442
17 | HMLFSDSDLKSLLDKDISYVIEMYKAASKEQKRIISDMVAQKVMEKKYIDANILIQLGELTGINYMDL | -1.32
18 | HMDSITEADLLRWAHALSGIARTGLGFTESRYERERYEEVLAVAADILAASSRSHDRAALVDEWLKMVGV | -1.55
19 | HMDAYMGEAKDEETFAEEYLNDSGLLNEIPESVARYFDIVAYARDLLIGDFSLHDGHVFNMT | -0.377
20 | HMQERKYTVSFNTNGGSTINDQKITSGNVIISPGAPKRSGYTFVGWYYHGQPFDLNTKINQDYVLVAKWIK | 0.207
21 | HMVESLTDRELQILSLAAKGYTNKAIAVQLGISDRTVQNHLANTFQKLNAESRTEAVMRAVSLGLISA | -0.422
22 | HMSEIYVDDINRKILYLLSQGIKTKSLLEHIPLSMSGIEKRKKQLKMLFSVEDGKDETLLEMAKEKGF | -1.07
23 | HMEDISLYKILRAHSIDNLKLSQWIIDSLKTKFSTIGELQDAKIDDIRMYRIQDVRIEKIKNAVTEYMA | -0.701
24 | HMNNSSIGERLKYQRKIKGYSQEELADRTNVTVRTIQRIEKEEVSPHLNTIKLLAIALDIEVDELVAL | -1.18
25 | HMAPNDELTRQVISVLSGTPQQAFNYKQISKKLNINDSSERRMVSNILRELAGKGEIVEVYQGKYRSKAPA | 0.116
26 | HMSTLTLTSGTYAVGENIKAGKYTIMGSGSIAISSSGKARVNSNLTADRKDYVLNDDETIKIKGKAQFIPI | 0.0425
27 | HMGKRRGLKVAEEVFADRGYNPDGTLVNRSLPGAFVKDPDEAIARVIKMVKTKKVTAVNGEEIDIAADSI | -0.462
28 | HMLDDESLHFFYKKDGWEYWMKTTTENNYPIQLRKKIGDEKVQEYWNGDKEKKKIGASYFGV | -0.6

Row | Sequence | soluble fraction (log2)
29 | HMLIADADSLRKQIETVLANAPNEVAAYRGGKETLMGWFVGQIMRATGGKADPKLTREILAELLQ | -0.126
30 | HMNFTKHPENPNFVVYRFTDPERANSFRAELIANNISFEEDTEKKKQLIYTLFAIHTKYYNQSMQINIK | -0.0767
31 | HMGYGEQEAEATKYMSLHAIMSADETLSKMYTPENQHKLMTHVMEQNGIKNVKDYLTPPSELP | -0.443
32 | HMASDYYTTTANLNLRSGAGTTYGSLIIIEKGDTVKLLENVNDHWVKIQYDDKIGYVAMSYLLPIE | -0.113
33 | HMVRSLADQVYERLRRNIVSGDLAPNARIVELDIAAQMGTSQGPVREALQRLEREGLVQRRAHSATFVTD | -0.324
34 | HMAVPMTPGELVGSRVRVLWWKDGRGEVVALARGHQATLPARSEEPLRTGADAVVLEADEGTLVVTS | -0.192
35 | HMNPNFIEVSHGRLRVNVPLSAYEGTTYHIKPEEAEKLKRTLASRYPWLTPNALKVFIEEAEQAMRERIQ | 0.217
36 | HMIRDVDYNTFVSMVQEGKVGQVEIQEQNNRILFTDKDERTVYKTAMVPDSDLISRLLEAGVSTS | -0.737
37 | HMATKVNSGVTVRDLAELLGLSSADLIKKLMTMGEMATLTQTLTDDSVKAIADEYDRKIEIVSAAQ | -0.771
38 | HMESRTQVYDFYKDLFREKRRPLRAEEMLSALKSQRGIVGVNQYQIIEQHGIVRLSGSGRSALYWDTDLGS | -0.746
39 | HMVRVSELAIEPRLVVEETATGFVGAVVRYANGLIELEDRHGAVRTFPLGPGYLVDGRPVSLVKPT | -0.35
40 | HMDDVIDVYATYDKSAEGVLSNIQLFSNQKKTTPITPESGKIYIDVEGNYQFRWTGTQYATV | -0.09
41 | HMYDDLEPFDANGRLRWSDKELILAFGRHRGVTLQTLELNDPGYLRWLLSGNGPLEQQDRKRLEDILES | -1.36
42 | HMEFDYIVKVPDVRNKKIEDAGKILIDLGLKYTTESDYITQDLKVIDQFPLPGTEVSKGSIIDIYLEEDFK | -0.446
43 | HMEIGLIRVDSRLIHGQVITKWLNYSKANVIVVVDDELSKDSFMSEIYKASAPNGIIVEILSIDDFMKNT | -0.142
44 | HMVEKRLFPQISDAGKRLDLFLAGALAISRTMVVKIIKDGGVLVNGKAAKASYRLAGDEELLVSYEEP | -0.243
45 | HMGDEVAVTEILVKVGDTVEADQSLLTVEGDKASMEVPAPFAGVVKAIQVQLGDKVVTGSPIMLFEV | -0.88
46 | HMQAATQVNIVGLFSNKAVVIINGGKPKTLSVGQTSEGVKLLAADSQTATLQIEGKTQQLGMGQAASVGG | 0.107
47 | HMAKIPASTVVEIDGAPVVVAVRVNARARSYRLSIPHSGGPLLTLPPHGKWAEAEAFLLRHHNWLAARLHR | 0.22
48 | HMRLDPENFYIRAVTYYRNGDWQRALSQLDEAIKLGTAIEYPALQARIYLEQGMRDEFIAASEK | -1.42
49 | HMDRTLTYTVSIEESDLRADQFLSRRGFSSHLLTRLRKNMEHLLINGTPSRTNTHLHEGDILTVHIVEE | -0.249
50 | HMTTRLLTPRQRQVFDIAIREGFYDSPRRISLTELADLLGVAKSTLSVQLQRVESTIVHTFSEEIRRRS | -0.176
51 | HMTLKTISLTEAIKNTNEGNYSKLVLDGNELTITEQGKETPSLKTYTEPGTSLKEQGFDLSKVEFEAREQS | -0.011
52 | HMEYSAAYDRELESIFNLTERGKWEEAEAEVGLLLQQYPEDKTLLRISEWVATQKTILREQAIEDRIRS | -0.48
53 | HMQEEFVAPDVKDGAIVLHKAFGEGTVTKIDKAQKHIRVTFGVGEKTFIFPDAFKQGFLRMKG | 0.222
54 | HMADEDTILALAKEILASWPDKVEAYKNGNKGMLGLFMGELMKKSGGKANPKSASALIQKLLE | -0.231
55 | HMFNRAVSDNEALQVREHFDRDATVMSLAKKYGVSTVTIQRILLGKTYRNVGGPLFDKATLKKRMGN | 0.13
